The text below walks through data of article doi:10.1101/2021.02.17.431740.

Assay [1] concerns the target HA-tagged PEAK3 Y24 mutant (SH2 binding motif mutant; DKO MCF-10A cells) (UniProt Q6ZS72). The experiment in a line: co-IP.
For assay [2], the target named is HA-tagged PEAK3 SH3(1) mutant (DKO MCF-10A cells) (UniProt Q6ZS72). Description: co-IP.

PYK2 (MCF-10A cells), sequence (Q14289 whole entry): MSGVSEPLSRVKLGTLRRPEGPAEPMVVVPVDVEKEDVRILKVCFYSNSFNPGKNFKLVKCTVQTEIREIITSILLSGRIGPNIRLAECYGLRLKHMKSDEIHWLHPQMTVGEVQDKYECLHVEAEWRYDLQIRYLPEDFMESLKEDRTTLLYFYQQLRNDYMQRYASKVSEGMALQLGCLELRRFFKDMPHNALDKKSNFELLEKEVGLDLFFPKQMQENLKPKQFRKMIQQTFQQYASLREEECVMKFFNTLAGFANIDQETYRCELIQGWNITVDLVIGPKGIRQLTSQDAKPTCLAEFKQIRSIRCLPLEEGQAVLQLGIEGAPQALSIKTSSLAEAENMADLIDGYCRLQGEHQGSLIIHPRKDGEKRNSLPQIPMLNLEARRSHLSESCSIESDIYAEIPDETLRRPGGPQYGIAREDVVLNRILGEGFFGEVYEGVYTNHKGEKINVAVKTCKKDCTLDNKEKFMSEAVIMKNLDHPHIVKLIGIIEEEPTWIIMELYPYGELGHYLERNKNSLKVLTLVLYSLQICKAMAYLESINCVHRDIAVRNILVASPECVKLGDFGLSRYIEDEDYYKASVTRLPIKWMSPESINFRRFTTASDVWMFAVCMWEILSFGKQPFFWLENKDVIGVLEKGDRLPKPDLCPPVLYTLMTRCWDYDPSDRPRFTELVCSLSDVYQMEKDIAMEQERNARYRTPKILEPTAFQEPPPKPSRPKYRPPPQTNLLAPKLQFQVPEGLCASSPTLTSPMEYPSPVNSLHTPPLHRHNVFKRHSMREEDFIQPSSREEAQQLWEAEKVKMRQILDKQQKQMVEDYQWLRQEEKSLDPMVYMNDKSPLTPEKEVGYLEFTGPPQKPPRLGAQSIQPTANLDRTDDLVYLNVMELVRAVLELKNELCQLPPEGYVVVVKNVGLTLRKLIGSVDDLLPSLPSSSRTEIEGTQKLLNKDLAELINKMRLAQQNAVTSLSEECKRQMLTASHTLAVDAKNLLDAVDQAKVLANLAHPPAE
CrkII (MCF-10A cells), sequence (P46108 whole entry): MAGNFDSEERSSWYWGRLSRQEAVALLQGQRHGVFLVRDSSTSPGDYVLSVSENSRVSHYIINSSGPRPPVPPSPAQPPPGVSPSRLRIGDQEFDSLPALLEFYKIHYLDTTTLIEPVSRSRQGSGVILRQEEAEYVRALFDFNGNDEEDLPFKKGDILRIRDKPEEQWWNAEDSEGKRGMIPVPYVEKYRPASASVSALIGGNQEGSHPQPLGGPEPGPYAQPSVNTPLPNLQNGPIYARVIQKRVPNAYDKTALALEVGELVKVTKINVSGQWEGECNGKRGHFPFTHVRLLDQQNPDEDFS

For the substance “CrkII (MCF-10A cells) (from UniProt P46108-1 1-304) (natural protein)”, in assay [1], the association relative to WT PEAK3 (control) is 40 % of control. Regarding “PYK2 (MCF-10A cells) (from UniProt Q14289 1-1009) (natural protein)”, the recruitment relative to WT PEAK3 in assay [2] is 50%.
